From the supplement of paper PMC12764529
± gives the half width of the 95% confidence interval.

Experiment: folding stability dG unfold (combined trypsin and chymotrypsin); higher = more stable
Protocol: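 Folding stability of de novo designed mini-proteins (<80 aa, no Cys; designed by TrROS, TrMRF, ProteinMPNN and the joint model) was measured by cDNA display proteolysis with trypsin and chymotrypsin. Each protease was used at 11 concentrations in a threefold dilution series plus a no-protease condition. K50 was inferred by Bayesian fitting of sequencing counts, and dG unfold was derived against a sequence-predicted unfolded-state K50 (Tsuboyama et al. method). Sequences shown include variable-length N-terminal GS-type padding (SAGGSAGG...) inside a display construct carrying a PA tag. Rows were kept only if the AF2 dimer inter-PAE was >15, to exclude likely homo-oligomers.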

Sequence	folding stability dG unfold [kcal/mol]
SAGMTIPVTSPEEARQVAEELAPEVGKEVTIEEAPPSVSTDNLPSNAIVLVNPDSGVRYVATIKEPDHHSAG [r5_173_JUSTAS]	< -1
SAGGSAGGSEGKEVVVVPAVGVPPEAVRRALEPLGIRTRVVPVPPVRPFRAADPGRVYYTPVGSAGGSAGGS [r12_80_TrMRF]	< -1
SAGGSAGGMPESAPPVPLPTSTVPLSEARAAGIEVPPGSERVIRTPSGVTYRISSATGTVTVVGSAGGSAGG [r6_275_JUSTAS]	< -1
SAGGSAGGSAGGSKEITFPAREIAEKLGIPPGRPITPEFLNKIKHVETDENGWVTLKLDSAGGSAGGSAGGS [r4_369_TrROS]	< -1
SAGGSAGGSAGGSKKKFKVKVIEKKPTTFPDGGVLVDYKVEIPETGALFDLKLTYTGEASAGGSAGGSAGGS [r4_94_TrMRF]	< -1
SAGGSAGGPRRISLMYKFSPDDGEMEPPSIEDLAKKFFPGAEPKNIDIEHNPNNGYMQVEIPIKSAGGSAGG [r6_81_TrROS]	< -1
SAGGSAGGSGMTVEERTSPDGTRVEVYLGPGSVVREESPEGVVTVRTLTDGRVEREEVVPVPASAGGSAGGS [r12_451_JUSTAS]	< -1
SAGGSAGGSAGDLPPGKEIEIMMSTPEWADEFADNFPNAKIKIEPMPPKPKYDPETGKGYSAGGSAGGSAGG [r17_126_TrROS]	< -1
SAGGGVSYSFSSSGSGSTVTIYIPGSGKTLKRKVNPNDTITDIPSSAKPYKVVKEVNDEKPVEEELGSAGGS [r8_487_JUSTAS]	-0.855 ± 0.72
SAGGSAGGSAGGPPVPYKIKSPNGRPFPVQINPDSGQIEIEFPGETRKIPLGMNWEIEPVSAGGSAGGSAGG [r7_434_TrROS]	< -1
SAGGSAGGSGPRAEELVVVNAPPGYRIPTPDGVPVTVPADAPNVLVRVTYGPGSSSVTVELVQSAGGSAGGS [r12_338_JUSTAS]	< -1
SAGGEKVPLKIRDPDNGNPHEFDKIESIDSVEMQKPPDNRQQYSIRFPGDGRPIMIDDPEDIEEALKSAGGS [r8_206_TrROS]	< -1
SAGGSAGGSASPVQRILARLPSGEPFEAVYDPSTGTIDVLGEGKPSTIPAGTPVEVLEVRLESAGGSAGGSA [r18_144_JUSTAS]	< -1
SAGGSAGGSAGGSMKIYVTSPEEAKKEKEKILEELKKTNIPPKVKVEVKVIPKSEIPLESAGGSAGGSAGGS [r4_472_JUSTAS]	< -1
SAGGMKAEIVNPNLSPEELKELILKAPEAKDVDIEVKKTSAKGAVSAKITTKSEKEAETIKKAVEEAVSAGG [r13_580_JUSTAS]	< -1
SAGGSATIEEILKEIAEPHGAEPEVDPNSGVIEVDFPNGQEHTINVDDGKPIKIKYNPPGRMYIEISAGGSA [r15_256_TrROS]	< -1
SSVSFDPATGTTTVTTTTPTGPDSPVLTTTTTTLTTNPDGTVTTTTTTTTTTVAPAAPLLTPANLALRAALS [r1_4_JUSTAS]	< -1
SAGGSAGGSAGGDLEIHIPPGMDPAQADNFAKMFGLKNIKIEPVPPVKPRVYTKNGEPDSAGGSAGGSAGGS [r10_1083_TrROS]	< -1
SNFYFTIEIERPDPNGEEKKIEITIPMERINQELQEEHGMESPQEAQEYFAKEIAEKFDENGYKVKIEPFSA [r9_868_TrROS]	-0.316 ± 0.52
SAGGSAGGSAGPNDKWKMEMEIEHSIPIEPGDTVRSPDTGEPIKPGKQVSIFRMYMEPAPSAGGSAGGSAGG [r11_793_TrROS]	< -1
SSFKTKITILEERELEPVPDRNGTPNPVRLVTIAVTNLGPESVSPEVVEKVKKEVEEKFKEEGIPVEIKDES [r1_305_JUSTAS]	< -1
SAGGDPDWKPIEFNLQRTVKPGDPEQIEEKAREFFEMFGIKSVTDVERERNPEGQQTVQASVKIRFPDSAGG [r13_222_TrROS]	< -1
SAGGSAGGSGVKAILDALPPDYTVTVEEEPSGDSYTITVTHPDGASPTLRIDGGGRGELRKALSAGGSAGGS [r12_174_TrMRF]	-0.845 ± 0.74
SAGGLTITVTPSVSENEVVVPGTGKPRFPEPRETYTVTVTPAPDVSLEEVAAEIREKFPGRGYTLTPSAGGS [r8_30_JUSTAS]	< -1
SMTYTVTKESSVSPLPDGSPVTSTTTTVTAPTEPVTVTTSTSVTPLSTGTSTTTSTTTTTVPPDDPLAASSA [r9_34_JUSTAS]	< -1
SAGGSAGGSLTIPLPDGGTLTVVEEDEEEVLVEERKPNPGGSSPATFTRTIRRPPPVLPPKLVSAGGSAGGS [r12_959_JUSTAS]	< -1
SAGGSAGGSAGGPRVTGTPVPGDDEPLLVVEREYTVEVGGGPRPVRVRFVFDHPDEALRSSAGGSAGGSAGG [r7_896_TrMRF]	< -1
SAGGSAGGSAGGADVPVAELEARGLGREALIAELGEDVTVTTEEHAPGAPVYRLTPLASSAGGSAGGSAGGS [r10_855_JUSTAS]	< -1
